Numbered stars: 1 amine (or outer) side, 2 acyl side, 3 side chain; on linkers, the order of the positions; unused ones are H or OH. Square brackets hold non-standard residues; d marks the D form. Orn(CA) = ornithine chloroamidine, O(CA), N=C(CCl)NCCC[C@H](N[*:1])C(=O)[*:2]; Orn(fluoroacetimidoyl) = N=C(CF)NCCC[C@H](N)C(=O)O
B1: 0741-02FA (peptide)
peptide: Ac-FFDSHKWH[Orn(fluoroacetimidoyl)]DFFYSD-NH2
SMILES: CC(=O)N[C@@H](Cc1ccccc1)C(=O)N[C@@H](Cc1ccccc1)C(=O)N[C@@H](CC(=O)O)C(=O)N[C@@H](CO)C(=O)N[C@@H](Cc1c[nH]cn1)C(=O)N[C@@H](CCCCN)C(=O)N[C@@H](Cc1c[nH]c2ccccc12)C(=O)N[C@@H](Cc1c[nH]cn1)C(=O)N[C@@H](CCCNC(=N)CF)C(=O)N[C@@H](CC(=O)O)C(=O)N[C@@H](Cc1ccccc1)C(=O)N[C@@H](Cc1ccccc1)C(=O)N[C@@H](Cc1ccc(O)cc1)C(=O)N[C@@H](CO)C(=O)N[C@@H](CC(=O)O)C(N)=O
B2: 0741-04FA (peptide)
peptide: Ac-FFDSHKLH[Orn(fluoroacetimidoyl)]EWMWSD-NH2
SMILES: CSCC[C@H](NC(=O)[C@H](Cc1c[nH]c2ccccc12)NC(=O)[C@H](CCC(=O)O)NC(=O)[C@H](CCCNC(=N)CF)NC(=O)[C@H](Cc1c[nH]cn1)NC(=O)[C@H](CC(C)C)NC(=O)[C@H](CCCCN)NC(=O)[C@H](Cc1c[nH]cn1)NC(=O)[C@H](CO)NC(=O)[C@H](CC(=O)O)NC(=O)[C@H](Cc1ccccc1)NC(=O)[C@H](Cc1ccccc1)NC(C)=O)C(=O)N[C@@H](Cc1c[nH]c2ccccc12)C(=O)N[C@@H](CO)C(=O)N[C@@H](CC(=O)O)C(N)=O
B3: 0741-03CA (peptide)
peptide: Ac-FFDSHKFD[Orn(CA)]DFIYSD-NH2
SMILES: CC[C@H](C)[C@H](NC(=O)[C@H](Cc1ccccc1)NC(=O)[C@H](CC(=O)O)NC(=O)[C@H](CCCNC(=N)CCl)NC(=O)[C@H](CC(=O)O)NC(=O)[C@H](Cc1ccccc1)NC(=O)[C@H](CCCCN)NC(=O)[C@H](Cc1c[nH]cn1)NC(=O)[C@H](CO)NC(=O)[C@H](CC(=O)O)NC(=O)[C@H](Cc1ccccc1)NC(=O)[C@H](Cc1ccccc1)NC(C)=O)C(=O)N[C@@H](Cc1ccc(O)cc1)C(=O)N[C@@H](CO)C(=O)N[C@@H](CC(=O)O)C(N)=O
B4: 0741-01FA (peptide)
peptide: Ac-FFDSKHFD[Orn(fluoroacetimidoyl)]EWIWSD-NH2
SMILES: CC[C@H](C)[C@H](NC(=O)[C@H](Cc1c[nH]c2ccccc12)NC(=O)[C@H](CCC(=O)O)NC(=O)[C@H](CCCNC(=N)CF)NC(=O)[C@H](CC(=O)O)NC(=O)[C@H](Cc1ccccc1)NC(=O)[C@H](Cc1c[nH]cn1)NC(=O)[C@H](CCCCN)NC(=O)[C@H](CO)NC(=O)[C@H](CC(=O)O)NC(=O)[C@H](Cc1ccccc1)NC(=O)[C@H](Cc1ccccc1)NC(C)=O)C(=O)N[C@@H](Cc1c[nH]c2ccccc12)C(=O)N[C@@H](CO)C(=O)N[C@@H](CC(=O)O)C(N)=O
B5: 0741-04CA (peptide)
peptide: Ac-FFDSHKLH[Orn(CA)]EWMWSD-NH2
SMILES: CSCC[C@H](NC(=O)[C@H](Cc1c[nH]c2ccccc12)NC(=O)[C@H](CCC(=O)O)NC(=O)[C@H](CCCNC(=N)CCl)NC(=O)[C@H](Cc1c[nH]cn1)NC(=O)[C@H](CC(C)C)NC(=O)[C@H](CCCCN)NC(=O)[C@H](Cc1c[nH]cn1)NC(=O)[C@H](CO)NC(=O)[C@H](CC(=O)O)NC(=O)[C@H](Cc1ccccc1)NC(=O)[C@H](Cc1ccccc1)NC(C)=O)C(=O)N[C@@H](Cc1c[nH]c2ccccc12)C(=O)N[C@@H](CO)C(=O)N[C@@H](CC(=O)O)C(N)=O
B6: 0741-01CA (peptide)
peptide: Ac-FFDSKHFD[Orn(CA)]EWIWSD-NH2
SMILES: CC[C@H](C)[C@H](NC(=O)[C@H](Cc1c[nH]c2ccccc12)NC(=O)[C@H](CCC(=O)O)NC(=O)[C@H](CCCNC(=N)CCl)NC(=O)[C@H](CC(=O)O)NC(=O)[C@H](Cc1ccccc1)NC(=O)[C@H](Cc1c[nH]cn1)NC(=O)[C@H](CCCCN)NC(=O)[C@H](CO)NC(=O)[C@H](CC(=O)O)NC(=O)[C@H](Cc1ccccc1)NC(=O)[C@H](Cc1ccccc1)NC(C)=O)C(=O)N[C@@H](Cc1c[nH]c2ccccc12)C(=O)N[C@@H](CO)C(=O)N[C@@H](CC(=O)O)C(N)=O
B7: 0741-05CA (peptide)
peptide: Ac-DSHKFD[Orn(CA)]DFIYSD-NH2
SMILES: CC[C@H](C)[C@H](NC(=O)[C@H](Cc1ccccc1)NC(=O)[C@H](CC(=O)O)NC(=O)[C@H](CCCNC(=N)CCl)NC(=O)[C@H](CC(=O)O)NC(=O)[C@H](Cc1ccccc1)NC(=O)[C@H](CCCCN)NC(=O)[C@H](Cc1c[nH]cn1)NC(=O)[C@H](CO)NC(=O)[C@H](CC(=O)O)NC(C)=O)C(=O)N[C@@H](Cc1ccc(O)cc1)C(=O)N[C@@H](CO)C(=O)N[C@@H](CC(=O)O)C(N)=O
B8: 0741-05FA (peptide)
peptide: Ac-DSHKFD[Orn(fluoroacetimidoyl)]DFIYSD-NH2
SMILES: CC[C@H](C)[C@H](NC(=O)[C@H](Cc1ccccc1)NC(=O)[C@H](CC(=O)O)NC(=O)[C@H](CCCNC(=N)CF)NC(=O)[C@H](CC(=O)O)NC(=O)[C@H](Cc1ccccc1)NC(=O)[C@H](CCCCN)NC(=O)[C@H](Cc1c[nH]cn1)NC(=O)[C@H](CO)NC(=O)[C@H](CC(=O)O)NC(C)=O)C(=O)N[C@@H](Cc1ccc(O)cc1)C(=O)N[C@@H](CO)C(=O)N[C@@H](CC(=O)O)C(N)=O
B9: 0741-02CA (peptide)
peptide: Ac-FFDSHKWH[Orn(CA)]DFFYSD-NH2
SMILES: CC(=O)N[C@@H](Cc1ccccc1)C(=O)N[C@@H](Cc1ccccc1)C(=O)N[C@@H](CC(=O)O)C(=O)N[C@@H](CO)C(=O)N[C@@H](Cc1c[nH]cn1)C(=O)N[C@@H](CCCCN)C(=O)N[C@@H](Cc1c[nH]c2ccccc12)C(=O)N[C@@H](Cc1c[nH]cn1)C(=O)N[C@@H](CCCNC(=N)CCl)C(=O)N[C@@H](CC(=O)O)C(=O)N[C@@H](Cc1ccccc1)C(=O)N[C@@H](Cc1ccccc1)C(=O)N[C@@H](Cc1ccc(O)cc1)C(=O)N[C@@H](CO)C(=O)N[C@@H](CC(=O)O)C(N)=O
B10: 0741-06FA (peptide)
peptide: Ac-DSKKHD[Orn(fluoroacetimidoyl)]DFLYSD-NH2
SMILES: CC(=O)N[C@@H](CC(=O)O)C(=O)N[C@@H](CO)C(=O)N[C@@H](CCCCN)C(=O)N[C@@H](CCCCN)C(=O)N[C@@H](Cc1c[nH]cn1)C(=O)N[C@@H](CC(=O)O)C(=O)N[C@@H](CCCNC(=N)CF)C(=O)N[C@@H](CC(=O)O)C(=O)N[C@@H](Cc1ccccc1)C(=O)N[C@@H](CC(C)C)C(=O)N[C@@H](Cc1ccc(O)cc1)C(=O)N[C@@H](CO)C(=O)N[C@@H](CC(=O)O)C(N)=O
B11: 0741-06CA (peptide)
peptide: Ac-DSKKHD[Orn(CA)]DFLYSD-NH2
SMILES: CC(=O)N[C@@H](CC(=O)O)C(=O)N[C@@H](CO)C(=O)N[C@@H](CCCCN)C(=O)N[C@@H](CCCCN)C(=O)N[C@@H](Cc1c[nH]cn1)C(=O)N[C@@H](CC(=O)O)C(=O)N[C@@H](CCCNC(=N)CCl)C(=O)N[C@@H](CC(=O)O)C(=O)N[C@@H](Cc1ccccc1)C(=O)N[C@@H](CC(C)C)C(=O)N[C@@H](Cc1ccc(O)cc1)C(=O)N[C@@H](CO)C(=O)N[C@@H](CC(=O)O)C(N)=O

The binders below were run against recombinant human PAD4 (human, UniProt Q9UM07 1-663) (assay: cell-based or functional assay).
Sequence of recombinant human PAD4 (Q9UM07 whole entry): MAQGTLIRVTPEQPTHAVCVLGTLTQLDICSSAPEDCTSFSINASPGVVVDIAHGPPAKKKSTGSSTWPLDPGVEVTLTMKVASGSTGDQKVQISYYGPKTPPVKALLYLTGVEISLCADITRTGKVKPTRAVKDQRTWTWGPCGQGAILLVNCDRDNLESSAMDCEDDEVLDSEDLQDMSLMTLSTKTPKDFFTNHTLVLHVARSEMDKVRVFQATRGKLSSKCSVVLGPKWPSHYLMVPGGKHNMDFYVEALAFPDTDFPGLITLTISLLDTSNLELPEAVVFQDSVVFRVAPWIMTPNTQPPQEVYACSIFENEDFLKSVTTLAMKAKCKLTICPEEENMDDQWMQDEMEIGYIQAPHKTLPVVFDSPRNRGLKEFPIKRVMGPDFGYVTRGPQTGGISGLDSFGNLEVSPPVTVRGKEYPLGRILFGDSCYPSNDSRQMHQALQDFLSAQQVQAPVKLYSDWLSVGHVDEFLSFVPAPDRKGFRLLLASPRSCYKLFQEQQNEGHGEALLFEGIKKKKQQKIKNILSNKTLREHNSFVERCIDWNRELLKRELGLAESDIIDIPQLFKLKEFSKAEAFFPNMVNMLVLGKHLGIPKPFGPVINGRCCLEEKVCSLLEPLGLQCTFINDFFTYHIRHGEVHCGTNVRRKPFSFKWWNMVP

Binder | conversion of 0708-30 by PAD4, 10 µM inhibitor [%] | conversion of 0708-30 by PAD4, 50 µM inhibitor [%] | conversion of 0708-30 by PAD4, 100 µM inhibitor [%]
B1 | 50 | 20 | 16
B2 | 64 | 28 | 14
B3 | 62 | 24 | 14
B4 | 63 | 24 | 15
B5 | 68 | 55 | 26
B6 | 63 | 31 | 17
B7 | 74 | 34 | 25
B8 | 55 | 22 | 14
B9 | 63 | 31 | 19
B10 | 74 | 43 | 27
B11 | 74 | 64 | 50

Each binder was assayed against recombinant human PAD2 (human, UniProt Q9Y2J8 1-665) (assay: cell-based or functional assay).
Sequence of recombinant human PAD2 (Q9Y2J8 whole entry): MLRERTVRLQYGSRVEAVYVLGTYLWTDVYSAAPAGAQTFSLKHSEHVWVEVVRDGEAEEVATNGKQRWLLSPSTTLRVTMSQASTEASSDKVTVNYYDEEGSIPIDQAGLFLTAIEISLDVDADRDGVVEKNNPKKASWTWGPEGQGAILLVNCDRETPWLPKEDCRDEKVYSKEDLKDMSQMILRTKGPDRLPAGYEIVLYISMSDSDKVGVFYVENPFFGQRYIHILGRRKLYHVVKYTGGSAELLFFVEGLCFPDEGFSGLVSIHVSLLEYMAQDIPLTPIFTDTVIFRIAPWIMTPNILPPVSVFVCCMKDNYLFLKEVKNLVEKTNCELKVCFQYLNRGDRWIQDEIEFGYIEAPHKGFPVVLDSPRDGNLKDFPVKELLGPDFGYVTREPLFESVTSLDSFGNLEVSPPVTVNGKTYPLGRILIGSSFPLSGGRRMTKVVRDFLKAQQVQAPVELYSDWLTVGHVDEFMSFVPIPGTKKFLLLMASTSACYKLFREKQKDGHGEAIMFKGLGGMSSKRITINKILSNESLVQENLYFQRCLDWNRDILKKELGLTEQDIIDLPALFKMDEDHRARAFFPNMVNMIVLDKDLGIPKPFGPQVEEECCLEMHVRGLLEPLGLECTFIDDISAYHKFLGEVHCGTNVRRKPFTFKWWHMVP

Binder | conversion of 0708-30 by PAD2, 10 µM inhibitor [%] | conversion of 0708-30 by PAD2, 50 µM inhibitor [%] | conversion of 0708-30 by PAD2, 100 µM inhibitor [%]
B1 | 52 | 17 | 7
B2 | 62 | 24 | 14
B3 | 57 | 49 | 23
B4 | 69 | 29 | 14
B5 | 69 | 47 | 50
B6 | 69 | 38 | 23
B7 | 62 | 44 | 31
B8 | 54 | 24 | 15
B9 | 67 | 32 | 18
B10 | 73 | 42 | 25
B11 | 63 | 45 | 48
